In patent US20250368754A1 (KANAPH THERAPEUTICS, published 2025):

T1: human DcR3 (human, UniProt O95407 30-300)
T1 construct: also called LIGHT receptor DcR3
T1 sequence (looked up): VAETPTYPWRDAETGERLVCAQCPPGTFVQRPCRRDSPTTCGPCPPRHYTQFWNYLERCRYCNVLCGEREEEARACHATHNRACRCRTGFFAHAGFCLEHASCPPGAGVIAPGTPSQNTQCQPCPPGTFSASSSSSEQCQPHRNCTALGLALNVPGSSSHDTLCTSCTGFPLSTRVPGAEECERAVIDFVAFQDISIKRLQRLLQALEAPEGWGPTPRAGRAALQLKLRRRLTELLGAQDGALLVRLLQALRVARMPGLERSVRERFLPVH

T2: recombinant human FAP (human, UniProt Q12884 26-760)
T2 construct: also called rhFAP
T2 sequence (looked up): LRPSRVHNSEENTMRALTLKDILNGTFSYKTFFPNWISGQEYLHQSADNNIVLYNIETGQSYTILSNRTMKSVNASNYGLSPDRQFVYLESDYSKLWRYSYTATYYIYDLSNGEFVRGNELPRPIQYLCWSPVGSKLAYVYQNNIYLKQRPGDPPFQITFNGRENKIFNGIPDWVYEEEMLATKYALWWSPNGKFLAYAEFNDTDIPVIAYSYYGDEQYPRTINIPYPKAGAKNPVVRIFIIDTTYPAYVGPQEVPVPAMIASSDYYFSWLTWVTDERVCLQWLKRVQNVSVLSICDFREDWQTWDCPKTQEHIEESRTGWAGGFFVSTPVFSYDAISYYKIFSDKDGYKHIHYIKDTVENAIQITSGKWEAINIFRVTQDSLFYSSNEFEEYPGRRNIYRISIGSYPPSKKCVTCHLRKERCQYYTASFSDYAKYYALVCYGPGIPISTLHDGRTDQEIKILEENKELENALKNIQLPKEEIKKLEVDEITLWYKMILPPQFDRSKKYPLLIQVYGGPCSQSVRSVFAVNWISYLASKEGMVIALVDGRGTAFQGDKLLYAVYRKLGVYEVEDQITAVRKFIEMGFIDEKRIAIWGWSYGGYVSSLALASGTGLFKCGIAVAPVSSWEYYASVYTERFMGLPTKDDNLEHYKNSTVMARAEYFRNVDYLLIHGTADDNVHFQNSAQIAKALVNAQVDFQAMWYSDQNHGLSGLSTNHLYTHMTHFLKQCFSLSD


Columns and labels:
[1] = biological target: T3, recombinant human lymphotoxin beta receptor (LTβR) (human, UniProt P36941 28-227, limits assumed); test: SPR, human LTβR immobilised on CM5, fusion protein as analyte, 1:1 binding model
T3 construct: neither construct is described; also called human LTβR; recombinant human LTβR protein
Experimental: Specifically, the surface of the CM5 chip was activated with a 1:1 mixture of […], and 5 μg/mL of human LTβR was immobilized for 60 seconds at a rate of 10 μL/min. The remaining active ester groups were blocked with 1 M ethanolamine. […] The diluted fusion proteins were reacted at a rate of 30 μL/min. The association and dissociation times were 180 seconds and 400 seconds, respectively. After the dissociation step, stabilization was performed for 60 seconds, and then the regeneration step was performed for 30 seconds with a 10 mM glycine pH 1.5 solution at a rate of 30 μL/min.

[2] = biological target: T1, human DcR3; test: SPR, human DcR3 immobilised on CM5, fusion protein as analyte, 1:1 binding model
Experimental: Specifically, the surface of the CM5 chip was activated with a 1:1 mixture of […], and 5 to 6 μg/mL of human DcR3 was immobilized for 60 seconds at a rate of 10 μL/min. The remaining active ester groups were blocked with 1 M ethanolamine. T3.01, T3.07, T3.09, T3.14, and T3.18 were each diluted to 50 nM or 200 nM in 1×HBS-EP+buffer solution and diluted by serial dilution. The diluted fusion proteins were reacted at a rate of 30 μL/min. The association and dissociation times were 180 seconds and 400 seconds, respectively. After the dissociation step, stabilization was performed for 60 seconds, and then the regeneration step was performed for 30 seconds with a 10 mM glycine pH 1.5 solution at a rate of 30 μL/min.

[3] = biological target: T2, recombinant human FAP; test: SPR, fusion protein captured by anti-human IgG (Fc) on CM5, recombinant human FAP as analyte, 1:1 binding model
Experimental: Specifically, the surface of the CM5 chip was activated with a 1:1 mixture of […] NHS (N-hydroxysuccinimide) and 200 nM EDC (1-ethyl-3-(3-dimethylaminopropyl)carbodiimide), and 20 μg/mL of anti-human IgG (Fc) antibody was immobilized for 400 seconds at a rate of 10 μL/min. The remaining active ester groups were blocked with 1 M ethanolamine. T3.01, T3.07, and T3.14 were diluted to 2 μg/mL, 1 μg/mL, and 2 μg/mL, respectively, and reacted on the CM5 chip immobilized with the anti-human IgG (Fc) antibody. The recombinant human FAP was diluted to 50 nM or 100 nM in 1×HBS-EP+buffer solution and diluted by serial dilution. The diluted recombinant human FAP was reacted at a rate of 30 μL/min. The association and dissociation times were 180 seconds and 400 seconds, respectively. After the dissociation step, stabilization was performed for 60 seconds, and then the regeneration step was performed for 30 seconds with a 10 mM glycine pH 1.5 solution at a rate of 30 μL/min.

T3 sequence (P36941 28-227 limits assumed): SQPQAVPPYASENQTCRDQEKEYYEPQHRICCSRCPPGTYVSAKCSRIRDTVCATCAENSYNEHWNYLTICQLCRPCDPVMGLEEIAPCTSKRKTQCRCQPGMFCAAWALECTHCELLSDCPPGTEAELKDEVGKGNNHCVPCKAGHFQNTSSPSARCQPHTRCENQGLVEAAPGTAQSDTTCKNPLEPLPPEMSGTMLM

Binder | Kd [1] [nM] | koff [1] [s⁻¹] | kon [1] [M⁻¹ s⁻¹] | Kd [2] [nM] | koff [2] [s⁻¹] | kon [2] [M⁻¹ s⁻¹] | Kd [3] [nM] | koff [3] [s⁻¹] | kon [3] [M⁻¹ s⁻¹]
T3.01 (anti-hu FAP/hu scLIGHT3, hu IgG1 DANG) (bispecific antibody, Knob-into-hole heterodimer: one anti-FAP Fab arm and one single-chain human LIGHT (91-240) homotrimer arm) heavy: QVQLVQSGAEVKKPGASVKVSCKTSRYTFTEYTIHWVRQAPGQRLEWIGGINPNNGIPNYNQKFKGRVTITVDTSASTAYMELSSLRSEDTAVYYCARRRIAYGYDEGHAMDYWGQGTLVTVSSASTKGPSVFPLAPSSKSTSGGTAALGCLVKDYFPEPVTVSWNSGALTSGVHTFPAVLQSSGLYSLSSVVTVPSSSLGTQTYICNVNHKPSNTKVDKKVEPKSCDKTHTCPPCPAPELLGGPSVFLFPPKPKDTLMISRTPEVTCVVVAVSHEDPEVKFNWYVDGVEVHNAKTKPREEQYGSTYRVVSVLTVLHQDWLNGKEYKCKVSNKALPAPIEKTISKAKGQPREPQVYTLPPSRDELTKNQVSLWCLVKGFYPSDIAVEWESNGQPENNYKTTPPVLDSDGSFFLYSKLTVDKSRWQQGNVFSCSVMHEALHNHYTQKSLSLSPGK light: not shown not shown | 0.928 | 0.000321 | 346000 | 0.357 | 0.000236 | 662000 | 0.0364 | 3.89e-06 | 107000
T3.14 (anti-hu FAP/hu scLIGHT-LTb2, hu IgG1 DANG) (bispecific antibody, Knob-into-hole; single-chain heterotrimer of one human LIGHT and two human lymphotoxin beta (87-243)) heavy: QVQLVQSGAEVKKPGASVKVSCKTSRYTFTEYTIHWVRQAPGQRLEWIGGINPNNGIPNYNQKFKGRVTITVDTSASTAYMELSSLRSEDTAVYYCARRRIAYGYDEGHAMDYWGQGTLVTVSSASTKGPSVFPLAPSSKSTSGGTAALGCLVKDYFPEPVTVSWNSGALTSGVHTFPAVLQSSGLYSLSSVVTVPSSSLGTQTYICNVNHKPSNTKVDKKVEPKSCDKTHTCPPCPAPELLGGPSVFLFPPKPKDTLMISRTPEVTCVVVAVSHEDPEVKFNWYVDGVEVHNAKTKPREEQYGSTYRVVSVLTVLHQDWLNGKEYKCKVSNKALPAPIEKTISKAKGQPREPQVYTLPPSRDELTKNQVSLWCLVKGFYPSDIAVEWESNGQPENNYKTTPPVLDSDGSFFLYSKLTVDKSRWQQGNVFSCSVMHEALHNHYTQKSLSLSPGK light: not shown not shown | 0.29 | 0.000434 | 1.5e+06 | 9.72 | 0.00198 | 204000 | 0.0123 | 1.53e-06 | 124000
